# Literature values in publication PMC4243993.
# Molecular target: His105 (UniProt position 105, PPVKIHCSILA)
substance,measurement,value
Iron-sulfur cluster assembly scaffold protein IscU (Escherichia coli),pKa,around 9
